# Biological target: the molecule itself
# Assay: two-hybrid; CheckMate mammalian two-hybrid (Promega) in HeLa Pml-/- cells; pG5-luc, pBIND-PML and pACT-PML at 1:1:1; dual-luciferase read-out 24 h after transfection; normalised to pACT vector:pBIND-PML = 1
row,Protein,percent reduction of PML self-interaction (relative luciferase activity) compared to control
1,"full-length PML L240R, mammalian two-hybrid fusions (natural protein, human, UniProt P29590-5 1-633, looked up, PML (TRIM19) isoform IV, full length, L240R; source: HeLa Pml-/- cells, transfected, mammalian two-hybrid fusion) MEPAPARSPRPQQDPARPQEPTMPPPETPSEGRQPSPSPSPTERAPASEEEFQFLRCQQCQAEAKCPKLLPCLHTLCSGCLEASGMQCPICQAPWPLGADTPALDNVFFESLQRRLSVYRQIVDAQAVCTRCKESADFWCFECEQLLCAKCFEAHQWFLKHEARPLAELRNQSVREFLDGTRKTNNIFCSNPNHRTPTLTSIYCRGCSKPLCCSCALLDSSHSELKCDISAEIQQRQEERDAMTQALQEQDSAFGAVHAQMHAAVGQLGRARAETEELIRERVRQVVAHVRAQERELLEAVDARYQRDYEEMASRLGRLDAVLQRIRTGSALVQRMKCYASDQEVLDMHGFLRQALCRLRQEEPQSLQAAVRTDGFDEFKVRLQDLSSCITQGKDAAVSKKASPEAASTPRDPIDVDLPEEAERVKAQVQALGLAEAQPMAVVQSVPGAHPVPVYAFSIKGPSYGEDVSNTTTAQKRKCSQTQCPRKVIKMESEEGKEARLARSSPEQPRPSTSKAVSPPHLDGPPSPRSPVIGSEVFLPNSNHVASGAGEAEERVVVISSSEDSDAENSSSRELDDSSSESSDLQLEGPSTLRVLDENLADPQAEDRPLVFFDLKIDNESGFSWGYPHPFLI",83.9%
2,"full-length PML L247R, mammalian two-hybrid fusions (natural protein, human, UniProt P29590-5 1-633, looked up, PML (TRIM19) isoform IV, full length, L247R; source: HeLa Pml-/- cells, transfected, mammalian two-hybrid fusion) MEPAPARSPRPQQDPARPQEPTMPPPETPSEGRQPSPSPSPTERAPASEEEFQFLRCQQCQAEAKCPKLLPCLHTLCSGCLEASGMQCPICQAPWPLGADTPALDNVFFESLQRRLSVYRQIVDAQAVCTRCKESADFWCFECEQLLCAKCFEAHQWFLKHEARPLAELRNQSVREFLDGTRKTNNIFCSNPNHRTPTLTSIYCRGCSKPLCCSCALLDSSHSELKCDISAEIQQRQEELDAMTQARQEQDSAFGAVHAQMHAAVGQLGRARAETEELIRERVRQVVAHVRAQERELLEAVDARYQRDYEEMASRLGRLDAVLQRIRTGSALVQRMKCYASDQEVLDMHGFLRQALCRLRQEEPQSLQAAVRTDGFDEFKVRLQDLSSCITQGKDAAVSKKASPEAASTPRDPIDVDLPEEAERVKAQVQALGLAEAQPMAVVQSVPGAHPVPVYAFSIKGPSYGEDVSNTTTAQKRKCSQTQCPRKVIKMESEEGKEARLARSSPEQPRPSTSKAVSPPHLDGPPSPRSPVIGSEVFLPNSNHVASGAGEAEERVVVISSSEDSDAENSSSRELDDSSSESSDLQLEGPSTLRVLDENLADPQAEDRPLVFFDLKIDNESGFSWGYPHPFLI",75.8%
3,"full-length PML V123R, mammalian two-hybrid fusions (natural protein, human, UniProt P29590-5 1-633, looked up, PML (TRIM19) isoform IV, full length, V123R; source: HeLa Pml-/- cells, transfected, mammalian two-hybrid fusion) MEPAPARSPRPQQDPARPQEPTMPPPETPSEGRQPSPSPSPTERAPASEEEFQFLRCQQCQAEAKCPKLLPCLHTLCSGCLEASGMQCPICQAPWPLGADTPALDNVFFESLQRRLSVYRQIRDAQAVCTRCKESADFWCFECEQLLCAKCFEAHQWFLKHEARPLAELRNQSVREFLDGTRKTNNIFCSNPNHRTPTLTSIYCRGCSKPLCCSCALLDSSHSELKCDISAEIQQRQEELDAMTQALQEQDSAFGAVHAQMHAAVGQLGRARAETEELIRERVRQVVAHVRAQERELLEAVDARYQRDYEEMASRLGRLDAVLQRIRTGSALVQRMKCYASDQEVLDMHGFLRQALCRLRQEEPQSLQAAVRTDGFDEFKVRLQDLSSCITQGKDAAVSKKASPEAASTPRDPIDVDLPEEAERVKAQVQALGLAEAQPMAVVQSVPGAHPVPVYAFSIKGPSYGEDVSNTTTAQKRKCSQTQCPRKVIKMESEEGKEARLARSSPEQPRPSTSKAVSPPHLDGPPSPRSPVIGSEVFLPNSNHVASGAGEAEERVVVISSSEDSDAENSSSRELDDSSSESSDLQLEGPSTLRVLDENLADPQAEDRPLVFFDLKIDNESGFSWGYPHPFLI",18.5%
4,"full-length PML V123R/F177R, mammalian two-hybrid fusions (natural protein, human, UniProt P29590-5 1-633, looked up, PML (TRIM19) isoform IV, full length, V123R and F177R; source: HeLa Pml-/- cells, transfected, mammalian two-hybrid fusion) MEPAPARSPRPQQDPARPQEPTMPPPETPSEGRQPSPSPSPTERAPASEEEFQFLRCQQCQAEAKCPKLLPCLHTLCSGCLEASGMQCPICQAPWPLGADTPALDNVFFESLQRRLSVYRQIRDAQAVCTRCKESADFWCFECEQLLCAKCFEAHQWFLKHEARPLAELRNQSVRERLDGTRKTNNIFCSNPNHRTPTLTSIYCRGCSKPLCCSCALLDSSHSELKCDISAEIQQRQEELDAMTQALQEQDSAFGAVHAQMHAAVGQLGRARAETEELIRERVRQVVAHVRAQERELLEAVDARYQRDYEEMASRLGRLDAVLQRIRTGSALVQRMKCYASDQEVLDMHGFLRQALCRLRQEEPQSLQAAVRTDGFDEFKVRLQDLSSCITQGKDAAVSKKASPEAASTPRDPIDVDLPEEAERVKAQVQALGLAEAQPMAVVQSVPGAHPVPVYAFSIKGPSYGEDVSNTTTAQKRKCSQTQCPRKVIKMESEEGKEARLARSSPEQPRPSTSKAVSPPHLDGPPSPRSPVIGSEVFLPNSNHVASGAGEAEERVVVISSSEDSDAENSSSRELDDSSSESSDLQLEGPSTLRVLDENLADPQAEDRPLVFFDLKIDNESGFSWGYPHPFLI",39.1%
5,"full-length PML L178R, mammalian two-hybrid fusions (natural protein, human, UniProt P29590-5 1-633, looked up, PML (TRIM19) isoform IV, full length, L178R; source: HeLa Pml-/- cells, transfected, mammalian two-hybrid fusion) MEPAPARSPRPQQDPARPQEPTMPPPETPSEGRQPSPSPSPTERAPASEEEFQFLRCQQCQAEAKCPKLLPCLHTLCSGCLEASGMQCPICQAPWPLGADTPALDNVFFESLQRRLSVYRQIVDAQAVCTRCKESADFWCFECEQLLCAKCFEAHQWFLKHEARPLAELRNQSVREFRDGTRKTNNIFCSNPNHRTPTLTSIYCRGCSKPLCCSCALLDSSHSELKCDISAEIQQRQEELDAMTQALQEQDSAFGAVHAQMHAAVGQLGRARAETEELIRERVRQVVAHVRAQERELLEAVDARYQRDYEEMASRLGRLDAVLQRIRTGSALVQRMKCYASDQEVLDMHGFLRQALCRLRQEEPQSLQAAVRTDGFDEFKVRLQDLSSCITQGKDAAVSKKASPEAASTPRDPIDVDLPEEAERVKAQVQALGLAEAQPMAVVQSVPGAHPVPVYAFSIKGPSYGEDVSNTTTAQKRKCSQTQCPRKVIKMESEEGKEARLARSSPEQPRPSTSKAVSPPHLDGPPSPRSPVIGSEVFLPNSNHVASGAGEAEERVVVISSSEDSDAENSSSRELDDSSSESSDLQLEGPSTLRVLDENLADPQAEDRPLVFFDLKIDNESGFSWGYPHPFLI",44.9%
6,"full-length PML V123R/L178R, mammalian two-hybrid fusions (natural protein, human, UniProt P29590-5 1-633, looked up, PML (TRIM19) isoform IV, full length, V123R and L178R; source: HeLa Pml-/- cells, transfected, mammalian two-hybrid fusion) MEPAPARSPRPQQDPARPQEPTMPPPETPSEGRQPSPSPSPTERAPASEEEFQFLRCQQCQAEAKCPKLLPCLHTLCSGCLEASGMQCPICQAPWPLGADTPALDNVFFESLQRRLSVYRQIRDAQAVCTRCKESADFWCFECEQLLCAKCFEAHQWFLKHEARPLAELRNQSVREFRDGTRKTNNIFCSNPNHRTPTLTSIYCRGCSKPLCCSCALLDSSHSELKCDISAEIQQRQEELDAMTQALQEQDSAFGAVHAQMHAAVGQLGRARAETEELIRERVRQVVAHVRAQERELLEAVDARYQRDYEEMASRLGRLDAVLQRIRTGSALVQRMKCYASDQEVLDMHGFLRQALCRLRQEEPQSLQAAVRTDGFDEFKVRLQDLSSCITQGKDAAVSKKASPEAASTPRDPIDVDLPEEAERVKAQVQALGLAEAQPMAVVQSVPGAHPVPVYAFSIKGPSYGEDVSNTTTAQKRKCSQTQCPRKVIKMESEEGKEARLARSSPEQPRPSTSKAVSPPHLDGPPSPRSPVIGSEVFLPNSNHVASGAGEAEERVVVISSSEDSDAENSSSRELDDSSSESSDLQLEGPSTLRVLDENLADPQAEDRPLVFFDLKIDNESGFSWGYPHPFLI",33.1%
7,"full-length PML I279R, mammalian two-hybrid fusions (natural protein, human, UniProt P29590-5 1-633, looked up, PML (TRIM19) isoform IV, full length, I279R; source: HeLa Pml-/- cells, transfected, mammalian two-hybrid fusion) MEPAPARSPRPQQDPARPQEPTMPPPETPSEGRQPSPSPSPTERAPASEEEFQFLRCQQCQAEAKCPKLLPCLHTLCSGCLEASGMQCPICQAPWPLGADTPALDNVFFESLQRRLSVYRQIVDAQAVCTRCKESADFWCFECEQLLCAKCFEAHQWFLKHEARPLAELRNQSVREFLDGTRKTNNIFCSNPNHRTPTLTSIYCRGCSKPLCCSCALLDSSHSELKCDISAEIQQRQEELDAMTQALQEQDSAFGAVHAQMHAAVGQLGRARAETEELRRERVRQVVAHVRAQERELLEAVDARYQRDYEEMASRLGRLDAVLQRIRTGSALVQRMKCYASDQEVLDMHGFLRQALCRLRQEEPQSLQAAVRTDGFDEFKVRLQDLSSCITQGKDAAVSKKASPEAASTPRDPIDVDLPEEAERVKAQVQALGLAEAQPMAVVQSVPGAHPVPVYAFSIKGPSYGEDVSNTTTAQKRKCSQTQCPRKVIKMESEEGKEARLARSSPEQPRPSTSKAVSPPHLDGPPSPRSPVIGSEVFLPNSNHVASGAGEAEERVVVISSSEDSDAENSSSRELDDSSSESSDLQLEGPSTLRVLDENLADPQAEDRPLVFFDLKIDNESGFSWGYPHPFLI",73.7%
8,"full-length PML F177R, mammalian two-hybrid fusions (natural protein, human, UniProt P29590-5 1-633, looked up, PML (TRIM19) isoform IV, full length, F177R; source: HeLa Pml-/- cells, transfected, mammalian two-hybrid fusion) MEPAPARSPRPQQDPARPQEPTMPPPETPSEGRQPSPSPSPTERAPASEEEFQFLRCQQCQAEAKCPKLLPCLHTLCSGCLEASGMQCPICQAPWPLGADTPALDNVFFESLQRRLSVYRQIVDAQAVCTRCKESADFWCFECEQLLCAKCFEAHQWFLKHEARPLAELRNQSVRERLDGTRKTNNIFCSNPNHRTPTLTSIYCRGCSKPLCCSCALLDSSHSELKCDISAEIQQRQEELDAMTQALQEQDSAFGAVHAQMHAAVGQLGRARAETEELIRERVRQVVAHVRAQERELLEAVDARYQRDYEEMASRLGRLDAVLQRIRTGSALVQRMKCYASDQEVLDMHGFLRQALCRLRQEEPQSLQAAVRTDGFDEFKVRLQDLSSCITQGKDAAVSKKASPEAASTPRDPIDVDLPEEAERVKAQVQALGLAEAQPMAVVQSVPGAHPVPVYAFSIKGPSYGEDVSNTTTAQKRKCSQTQCPRKVIKMESEEGKEARLARSSPEQPRPSTSKAVSPPHLDGPPSPRSPVIGSEVFLPNSNHVASGAGEAEERVVVISSSEDSDAENSSSRELDDSSSESSDLQLEGPSTLRVLDENLADPQAEDRPLVFFDLKIDNESGFSWGYPHPFLI",45.1%

# Biological target: the molecule itself
# Assay: SEC; analytical size exclusion on Superdex 200 Increase 10/300 GL in 20 mM HEPES, pH 7.4, 100 mM NaCl, 4% glycerol; all truncations N-terminally fused to MBP
row,Protein,binding result
1,"MBP-PML_(46–287) (domain or fragment, human, UniProt P29590 46-287, looked up, PML (TRIM19), human, residues 46-287; source: E. coli BL21(DE3), purified; not shown: MBP, N-terminal, kept) PASEEEFQFLRCQQCQAEAKCPKLLPCLHTLCSGCLEASGMQCPICQAPWPLGADTPALDNVFFESLQRRLSVYRQIVDAQAVCTRCKESADFWCFECEQLLCAKCFEAHQWFLKHEARPLAELRNQSVREFLDGTRKTNNIFCSNPNHRTPTLTSIYCRGCSKPLCCSCALLDSSHSELKCDISAEIQQRQEELDAMTQALQEQDSAFGAVHAQMHAAVGQLGRARAETEELIRERVRQVV",binds
2,"MBP-PML_(46–323) (domain or fragment, human, UniProt P29590 46-323, looked up, PML (TRIM19), human, residues 46-323; source: E. coli BL21(DE3), purified; not shown: MBP, N-terminal, kept) PASEEEFQFLRCQQCQAEAKCPKLLPCLHTLCSGCLEASGMQCPICQAPWPLGADTPALDNVFFESLQRRLSVYRQIVDAQAVCTRCKESADFWCFECEQLLCAKCFEAHQWFLKHEARPLAELRNQSVREFLDGTRKTNNIFCSNPNHRTPTLTSIYCRGCSKPLCCSCALLDSSHSELKCDISAEIQQRQEELDAMTQALQEQDSAFGAVHAQMHAAVGQLGRARAETEELIRERVRQVVAHVRAQERELLEAVDARYQRDYEEMASRLGRLDAVL",binds
